In article PMC11089518, “Development of Prolinol Containing Inhibitors of Hypoxanthine–Guanine–Xanthine Phosphoribosyltransferase: Rational Structure-Based Drug Design” (Journal of Medicinal Chemistry, 2024):

B1: Trypanosoma brucei hypoxanthine-guanine phosphoribosyltransferase isoform 1 (TBrHGPRT1) (enzyme, UniProt Q07010 1-210, looked up)
chain: MEPACKYDFATSVLFTEAELHTRMRGVAQRIADDYSNCNLKPLENPLVIVSVLKGSFVFTADMVRILGDFGVPTRVEFLRASSYGHDTKSCGRVDVKADGLCDIRGKHVLVLEDILDTALTLREVVDSLKKSEPASIKTLVAIDKPGGRKIPFTAEYVVADVPNVFVVGYGLDYDQSYREVRDVVILKPSVYETWGKELERRKAAGEAKR
notes: hypoxanthine-guanine phosphoribosyltransferase isoform HGPRT1 (cytoplasmic) of Trypanosoma brucei; source: expressed and purified to homogeneity as previously described
B2: human hypoxanthine-guanine phosphoribosyltransferase (human HGPRT) (enzyme)
chain: MATRSPGVVISDDEPGYDLDLFCIPNHYAEDLERVFIPHGLIMDRTERLARDVMKEMGGHHIVALCVLKGGYKFFADLLDYIKALNRNSDRSIPMTVDFIRLKSYCNDQSTGDIKVIGGDDLSTLTGKNVLIVEDIIDTGKTMQTLLSLVRQYNPKMVKVASLLVKRTPRSVGYKPDFVGFEIPDKFVVGYALDYNEYFRDLNHVCVISETGKAKYKA
notes: hypoxanthine-guanine phosphoribosyltransferase, human; source: expressed and purified to homogeneity as previously described

What was measured:
[1] = molecular target: the molecule itself; assay: crystal structure; TbrHGPRT1 (8 mg/mL, 0.3 mM) with inhibitor 4 or 5, 0.2 M MgCl2, 0.1 M Bis-Tris pH 5.0, 20% PEG 3350, hanging drop; oligomer as refined in the asymmetric unit
[2] = molecular target: the molecule itself; assay: crystal structure; human HGPRT (10 mg/mL, 0.4 mM) with inhibitor 1 (0.3 M calcium acetate, 20% PEG 3350) or 5 (0.3 M sodium acetate, 17.5% PEG 3350), hanging drop; oligomer as refined in the asymmetric unit

| Protein | stoichiometry N [1] | stoichiometry N [2] |
| --- | --- | --- |
| B1 | 2 |  |
| B2 |  | 4 |
